We go through 18 molecules from patent US20260274955A1 (JANUX THERAPEUTICS, published 2026).

The first assay deals with T1, anti-CD28 Fab (SEQ ID NOs: 202, 203).
T1 construct: biotinylated and captured on neutravidin coated plates in the phage ELISA
T1 sequence (VH, as listed by the source, chain 1 of 2): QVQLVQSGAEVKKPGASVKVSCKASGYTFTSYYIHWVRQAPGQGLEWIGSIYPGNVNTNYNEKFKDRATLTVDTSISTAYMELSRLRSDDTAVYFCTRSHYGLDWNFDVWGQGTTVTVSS
T1 sequence (VL, as listed by the source, chain 2 of 2): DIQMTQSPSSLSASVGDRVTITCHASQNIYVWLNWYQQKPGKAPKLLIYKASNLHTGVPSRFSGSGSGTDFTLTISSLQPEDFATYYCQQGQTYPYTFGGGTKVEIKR
The assay is described as follows: phage binding ELISA; biotinylated Fab on neutravidin plate.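 Further: clonal phage supernatants added to Fab wells pretreated with CD28 antigen or with blocking buffer only, bound phage read out via HRP-linked anti-M13 antibody.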
Method: (§1) Clonal phage were harvested as crude supernatants and screened via standard ELISAs. […] Prior to the addition of clonal phage, wells were incubated with blocking buffer and CD28 antigen or blocking buffer alone. Without washing or aspirating, clonal phage supernatants were then added to the wells and incubated for a short time. Wells were then washed followed by detection of bound phage using a horse radish conjugated anti-M13 antibody.
As for YCAGHLPEYLSKCL [Phage-345], the “Anti-CD28 Fab (SEQ ID NOs: 202, 203) signal” value was found to be 1.84.
On the same count and under the same terms, the value for YCAGHLPMYMAKCL [Phage-367] was 1.8.
For the molecule YCDGHSAAYIMKCL [Phage-342], the “Anti-CD28 Fab (SEQ ID NOs: 202, 203) signal” value was determined as 1.84.
Regarding YCDGHSWAYMWKCL [Phage-341], the “Anti-CD28 Fab (SEQ ID NOs: 202, 203) signal” value is 1.85.
Still for that read-out and setting: the result for YCEGHAAEYMSKCL [Phage-339] reads 1.86; that for YCDGHMPEYLAKCL [Phage-338], 1.86; that for YCAGHAPEYMFKCM [Phage-347], 1.83.
The same measure, in the same setting: the value for YCDGHSSEYIAKCL [Phage-383] was 1.77; that for YCDGHSPEYIAKCL [Phage-374] was 1.79; that for YCDGHSLQYLGKCL [Phage-343] was 1.84.
Same read-out and setting: the result for YCDGHSPAYMAKCL [Phage-350] reads 1.83; that for YCDGHAWEYMTKCL [Phage-448], 1.69.
Consider YCQGHSAEYMMKCL [Phage-364], for which the “Anti-CD28 Fab (SEQ ID NOs: 202, 203) signal” value was determined as 1.81.
On the same count and under the same terms, the value for YCAGHSSEYMWKCL [Phage-340] was 1.85.
As for YCEGHLQIYMSKCL [Phage-346], the “Anti-CD28 Fab (SEQ ID NOs: 202, 203) signal” value amounted to 1.84.
Same read-out and setting: the value for YCEGHLPIYMSKCL [Phage-388] was 1.76.
Same read-out and setting: the result for YCDGHTREYIDKCL [Phage-368] reads 1.8; that for YCDGHKAEYMEKCL [Phage-366], 1.81.

For a further assay the target is unchanged. The assay is described as follows: phage binding ELISA; Fab wells pre-incubated with CD28 antigen (competitor).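 Further: clonal phage supernatants added to wells preincubated with CD28 antigen in blocking buffer versus blocking buffer alone, washed, bound phage read by HRP-conjugated anti-M13 antibody.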
Method: as §1
Regarding YCAGHLPEYLSKCL [Phage-345], the “Anti-CD28 Fab signal in the presence of CD28” value (from here on “Anti-CD28 Fab signal”) was 0.07.
Take YCAGHLPMYMAKCL [Phage-367]: the “Anti-CD28 Fab signal” value came to 0.08.
Regarding YCDGHSAAYIMKCL [Phage-342], the “Anti-CD28 Fab signal” value is 0.09.
As to YCDGHSWAYMWKCL [Phage-341], the “Anti-CD28 Fab signal” value turned out to be 0.13.
In the case of YCEGHAAEYMSKCL [Phage-339], the “Anti-CD28 Fab signal” value came to 0.07.
The same measure, in the same setting: the result for YCDGHMPEYLAKCL [Phage-338] reads 0.07; that for YCAGHAPEYMFKCM [Phage-347], 0.06.
Still for that read-out and setting: the value for YCDGHSSEYIAKCL [Phage-383] was 0.07.
Consider YCDGHSPEYIAKCL [Phage-374], for which the “Anti-CD28 Fab signal” value came out at 0.23.
Same read-out and setting: the value for YCDGHSLQYLGKCL [Phage-343] was 0.09; that for YCDGHSPAYMAKCL [Phage-350] was 0.1.
Still for that read-out and setting: the value for YCDGHAWEYMTKCL [Phage-448] was 0.35; that for YCQGHSAEYMMKCL [Phage-364] was 0.07.
Same read-out and setting: the value for YCAGHSSEYMWKCL [Phage-340] was 0.07; that for YCEGHLQIYMSKCL [Phage-346] was 0.14; that for YCEGHLPIYMSKCL [Phage-388] was 0.09.
On to YCDGHTREYIDKCL [Phage-368], for which the “Anti-CD28 Fab signal” value was determined as 0.08.
With YCDGHKAEYMEKCL [Phage-366], the “Anti-CD28 Fab signal” value was 0.09.
